These results are taken from publication PMC12299999.

The assay deals with HA-Foldon (HA1-521 fused at the C-terminus to the bacteriophage T4 fibritin trimerization motif) (influenza A or B virus (strain not stated for this experiment) | bacteriophage T4). The experiment in a line: native gel or EMSA.

What is called stoichiometry N is the number of molecules, sites or subunits per partner or assembly. For the substance “HA-Foldon (HA1-521 fused at the C-terminus to the bacteriophage T4 fibritin trimerization motif)”, the stoichiometry N is 3.
